Experimental data: publication PMC6963987

How the values were obtained:
Assay in all cases: SPR; Fcγ receptors immobilised, trastuzumab glycan variants as analyte; Biacore T200; relative binding (%) normalised with trastuzumab starting material; n = 3; procedure in ref. 54
[1] = target: FcγRIIa R131
[2] = target: FcγRIIIa V158
[3] = target: FcγRIIb/c (UniProt P31994)
[4] = target: FcγRIIIa F158 (UniProt P08637)

Sequence of UniProt P31994 (P31994 43-217): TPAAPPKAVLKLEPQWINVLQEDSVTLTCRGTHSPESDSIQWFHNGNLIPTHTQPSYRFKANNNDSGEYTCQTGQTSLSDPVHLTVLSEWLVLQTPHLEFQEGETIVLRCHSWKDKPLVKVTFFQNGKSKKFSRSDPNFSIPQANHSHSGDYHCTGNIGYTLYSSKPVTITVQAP

| Substance | relative binding (% of trastuzumab starting material) [1] | relative binding (% of trastuzumab starting material) [2] | relative binding (% of trastuzumab starting material) [3] | relative binding (% of trastuzumab starting material) [4] |
| --- | --- | --- | --- | --- |
| Trastuzumab α-2,6-sialylated variant G2S2F ST6 (antibody) | 130% | 121% | 162% | 150% |
| Trastuzumab α-2,3-sialylated variant G2S2F ST3 (antibody) | – | – | – | 62% |
| Trastuzumab hyper-galactosylated variant G2F (antibody) | – | 120% | – | 124% |
